Source: article PMC11407943, “Cdc14 phosphatases use an intramolecular pseudosubstrate motif to stimulate and regulate catalysis” (The Journal of Biological Chemistry, 2024)
Substitutions are numbered along the chain they refer to. Names may count otherwise.

B1: ScCdc14^1-374 (Saccharomyces cerevisiae S288C) (protein)
chain: MRRSVYLDNTIEFLRGRVYLGAYDYTPEDTDELVFFTVEDAIFYNSFHLDFGPMNIGHLYRFAVIFHEILNDPENANKAVVFYSSASTRQRANAACMLCCYMILVQAWTPHQVLQPLAQVDPPFMPFRDAGYSNADFEITIQDVVYGVWRAKEKGLIDLHSFNLESYEKYEHVEFGDFNVLTPDFIAFASPQEDHPKGYLATKSSHLNQPFKSVLNFFANNNVQLVVRLNSHLYNKKHFEDIGIQHLDLIFEDGTCPDLSIVKNFVGAAETIIKRGGKIAVHCKAGLGRTGCLIGAHLIYTYGFTANECIGFLRFIRPGMVVGPQQHWLYLHQNDFREWKYTTRISLKPSEAIGGLYPLISLEEYRLQKKKLKD
B2: hCdc14B^Q390A (Homo sapiens; Q390A) (protein)
chain: MSREGAGAALVAEVIKDRLCFAILYSRPKSASNVHYFSIDNELEYENFYADFGPLNLAMVYRYCCKINKKLKSITMLRKKIVHFTGSDQRKQANAAFLVGCYMVIYLGRTPEEAYRILIFGETSYIPFRDAAYGSCNFYITLLDCFHAVKKAMQYGFLNFNSFNLDEYEHYEKAENGDLNWIIPDRFIAFCGPHSRARLESGYHQHSPETYIQYFKNHNVTTIIRLNKRMYDAKRFTDAGFDHHDLFFADGSTPTDAIVKEFLDICENAEGAIAVHCKAGLGRTGTLIACYIMKHYRMTAAETIAWVRICRPGSVIGPQQQFLVMKQTNLWLEGDYFRQKLKGQENGQHRAAFSKLLSGVDDISINGVENQDQQEPEPYSDDDEINGVTAGDRLRALKSRRQSKTNAIPLT
notes: codons 1-411; N-terminal GST; expressed in E. coli
B3: ScCdc14^1-449 (Saccharomyces cerevisiae S288C) (protein)
chain: MRRSVYLDNTIEFLRGRVYLGAYDYTPEDTDELVFFTVEDAIFYNSFHLDFGPMNIGHLYRFAVIFHEILNDPENANKAVVFYSSASTRQRANAACMLCCYMILVQAWTPHQVLQPLAQVDPPFMPFRDAGYSNADFEITIQDVVYGVWRAKEKGLIDLHSFNLESYEKYEHVEFGDFNVLTPDFIAFASPQEDHPKGYLATKSSHLNQPFKSVLNFFANNNVQLVVRLNSHLYNKKHFEDIGIQHLDLIFEDGTCPDLSIVKNFVGAAETIIKRGGKIAVHCKAGLGRTGCLIGAHLIYTYGFTANECIGFLRFIRPGMVVGPQQHWLYLHQNDFREWKYTTRISLKPSEAIGGLYPLISLEEYRLQKKKLKDDKRVAQNNIEGELRDLTMTPPSNGHGALSARNSSQPSTANNGSNSFKSSAVPQTSPGQPRKGQNGSNTIEDINNN
B4: ScCdc14^Q432N (Saccharomyces cerevisiae S288C; Q432N) (protein)
chain: B3 chain with Q432N
B5: ScCdc14^Q432E (Saccharomyces cerevisiae S288C; Q432E) (protein)
chain: B3 chain with Q432E
B6: ScCdc14^Q432A (Saccharomyces cerevisiae S288C; Q432A) (protein)
chain: B3 chain with Q432A
B7: ScCdc14^P433A/K435A (Saccharomyces cerevisiae S288C; K435A/P433A) (protein)
chain: B3 chain with P433A, K435A
B8: hCdc14B^1-411 (Homo sapiens) (protein)
chain: DRLCFAILYSRPKSASNVHYFSIDNELEYENFYADFGPLNLAMVYRYCCKINKKLKSITMLRKKIVHFTGSDQRKQANAAFLVGCYMVIYLGRTPEEAYRILIFGETSYIPFRDAAYGSCNFYITLLDCFHAVKKAMQYGFLNFNSFNLDEYEHYEKAENGDLNWIIPDRFIAFCGPHSRARLESGYHQHSPETYIQYFKNHNVTTIIRLNKRMYDAKRFTDAGFDHHDLFFADGSTPTDAIVKEFLDICENAEGAIAVHCKAGLGRTGTLIACYIMKHYRMTAAETIAWVRICRPGSVIGPQQQFLVMKQTNLWLEGDYFRQKLKGQENGQHRAAFSKLLSGVDDISINGVENQDQQEPEPYSDDDEINGVTQGDRLRALKSRRQSKTNAIPLT
notes: as for B2
B9: ScCdc14^S429E (Saccharomyces cerevisiae S288C; S429E) (protein)
chain: B3 chain with S429E

What follows are proteins tested on Cc1cc(=O)oc2c(F)c(OP(=O)(O)O)c(F)cc12 (assay: not given). Settings: pH 7.5; 30.0 °C.
Type: biochemical
Description: Enzym e kcat (sec-1) KM (µM)
Protein B1 has a Km of 0.76 µM. For B2, the Km was 2.88 µM. Protein B3 has a Km of 8.4 µM. B4 was tested, and the Km was 0.92 µM. Work on B5 yielded a Km of 1.11 µM. B6 showed a Km of 0.72 µM. Work on B7 yielded a Km of 1.0 µM. B8 was tested, and the Km was 46 µM.

The proteins below were run on Cc1cc(=O)oc2c(F)c(OP(=O)(O)O)c(F)cc12 (assay: purified protein, by the assay type). Settings: pH 7.5; 30.0 °C.
Description: Data from velocity versus substrate concentration plots were fit with the Michaelis–Menten equation in GraphPad Prism (https://www.graphpad.com/) to determine steady-state kinetic parameters kcat and KM. For trans peptide stimulation assays, DiFMUP was used at a single concentration well above the measured KM for each enzyme. […] (where pS is phosphoSer), were assayed in Cdc14 reaction buffer with Biomol Green (Enzo Life Science) detection of released inorganic phosphate as previously described ([29]). Data were fit with a modified Michaelis–Menten equation including a substrate inhibition term in Prism.
After removing the Cdk1-bound affinity resin, we measured effects on Cdc14 steady-state kinetic parameters with DiFMUP.
Values are means of at least six independent measurements and error bars are SDs.
B3 gave a Km of 25 µM. B9 was tested, and the Km was 3.3 µM.
